Paper PMC6004577

Target: Acanthamoeba castellanii actin (amoeba actin), filaments (Acanthamoeba castellanii)

Sequence of mDelFCΔ20, mDelFC lacking the last 20 residues (Q0QWG9 805-1183, stated change not applied): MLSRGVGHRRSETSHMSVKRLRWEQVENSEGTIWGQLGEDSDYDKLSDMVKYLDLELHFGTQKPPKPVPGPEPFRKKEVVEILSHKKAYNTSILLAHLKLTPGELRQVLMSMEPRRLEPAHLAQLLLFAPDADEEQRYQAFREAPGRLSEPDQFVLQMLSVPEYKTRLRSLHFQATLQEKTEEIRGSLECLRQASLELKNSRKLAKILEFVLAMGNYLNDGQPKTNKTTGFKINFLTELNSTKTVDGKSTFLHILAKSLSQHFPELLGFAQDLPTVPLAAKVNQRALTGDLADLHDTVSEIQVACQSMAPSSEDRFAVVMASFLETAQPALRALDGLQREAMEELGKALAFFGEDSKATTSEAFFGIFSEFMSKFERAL

inhibition of barbed-end elongation in seeded elongation assays: 7 nM
Substance: mDelFCΔ20, mDelFC lacking the last 20 residues (from UniProt Q0QWG9-2 626-1004) (domain or fragment)
